The values that follow come from paper PMC3312907, “Monoclonal Antibodies to Meningococcal Factor H Binding Protein with Overlapping Epitopes and Discordant Functional Activity” (PLoS ONE, 2012).

Experiment [1] concerns the target recombinant factor H binding protein (fHbp) ID 1 (Neisseria meningitidis (strain MC58)) (UniProt Q9JXV4). Kind of experiment: ELISA; competitive inhibition: wells coated with 2 µg/ml fHbp ID 1; dilutions of the first mAb together with 1 µg/ml of the second mAb, 37°C, 2 h; detection with subclass-specific (IgG3 or IgG2a) secondary antibody. (ELISA stands for enzyme-linked immunosorbent assay.)

The target in experiment [2] is murine anti-fHbp mAb JAR 5 (IgG2b). Kind of experiment: ELISA. To be noted: mAb at 10 µg/ml (highest point of titration); wells coated with 2 µg/ml of wild-type or mutant fHbp; parent: est. 3.7; read off a plot.
The target of experiment [3] is murine anti-fHbp mAb JAR 1 (IgG3). The experiment can be described thus: ELISA. To be noted: mAb at 10 µg/ml (highest point of titration); wells coated with 2 µg/ml of wild-type or mutant fHbp; parent: est. 2.4; read off a plot.
The target of experiment [4] is murine anti-fHbp mAb502 (IgG2a). The experiment can be described thus: ELISA. To be noted: wells coated with 2 µg/ml of wild-type or mutant fHbp, read off a plot.
Experiment [5] addresses T1, recombinant factor H binding protein (fHbp) ID 1 (Neisseria meningitidis (strain MC58), UniProt Q9JXV4).
T1 construct: also called wild-type (WT) fHbp ID 1; rfHbp; source: E. coli (pET21b), purified (Ni-NTA agarose)
The experiment can be described thus: ELISA; wells coated with 2 µg/ml recombinant fHbp in PBS overnight at 4°C; dilutions of mAb overnight at 4°C; bound mAb detected with anti-mouse or anti-human IgG (Fc specific)-alkaline phosphatase (legend of Figure 5: anti-human kappa light chain). To be noted: both partners purified.

For experiment [6], the target named is T2, fHbp ID 1 on live bacteria of N. meningitidis group B strain H44/76 (Neisseria meningitidis (endogenous in …, UniProt Q9JXV4)).
T2 construct: source: endogenous, live bacteria of group B strain H44/76
The experiment can be described thus: flow cytometry on cells; as a6, for the anti-fHbp mAb added at 2 or 50 µg/ml for 30 min at room temperature to live bacteria; read-out is bound fH. The note with it: one partner purified. For orientation: A flow cytometer gives signals particle by particle.

Setting [7] is: mAb at 10 µg/ml (highest point of titration), parent: est. 3.6.

For “murine anti-fHbp mAb JAR 1 (IgG3) (antibody)”, the percent inhibition of mAb502 binding to fHbp in experiment [1] is above 90%.
With “recombinant factor H binding protein (fHbp) ID 1 (from UniProt Q9JXV4) D142A”, the response in experiment [2] is 3.6 OD 405nm; in experiment [3], 2.3 OD 405nm; in experiment [4] (setting [7]) it was 3.5 OD 405nm; in experiment [4] (mAb at about 0.08 µg/ml (point read from the log x axis, est.), parent: est. 3.7) it was 1.4 OD 405nm.
“recombinant factor H binding protein (fHbp) ID 1 (from UniProt Q9JXV4) K143A”: the response in experiment [2] is 3.8 OD 405nm; in experiment [3], 1.3 OD 405nm; in experiment [4] (setting [7]) it was 3.6 OD 405nm.
For “recombinant factor H binding protein (fHbp) ID 1 (from UniProt Q9JXV4) R204A”, in that order: 3.4 OD 405nm, 0.15 OD 405nm and 0.3 OD 405nm.
For “recombinant factor H binding protein (fHbp) ID 1 (from UniProt Q9JXV4) R204H”, in that order: 3.6 OD 405nm, 2.2 OD 405nm and 0.3 OD 405nm.

B1: chimeric human IgG1 mouse anti-fHbp mAb502 (antibody, V domains shown)
VH: EVQLQESGPGLAKPSQTLSLTCSVTGYSITSDFWNWIRKFPGNKLEYMGYISYSGSTDYNPSLKSRISITRDTSKNQYYLQLNSVTAEDTATYYCARYFGSSYAMDHWGQGTSVTVSS
VL: DIQMTQSPASLSASVGETVTITCRASGNIHNYLAWYQQKQGKSPQLLVYTAKTLAEGVPSRFSGSGSGTQFSLKINSLQPEDFGSYYCQHFWSTPWTFGGGTKLEIK
notes: also called chimeric mAb502; chimeric human IgG1 mAb502; source: transfected CHO cells, serum-free medium, purified from supernatant (HiTrap protein G)
B1: the binding result in experiment [5] and in experiment [6] was “binds” throughout.

B2: chimeric human IgG1 mouse anti-fHbp JAR 1 mAb (antibody, V domains shown)
VH: QVQLQQPGTELVMPGASVKLSCKASGYTFTNYWMHWVKQRPGQGLEWIGEIDPSDNYTKYNQKFKGKATLTVHTSSTTAYIQLSSLTSEDSAVYYCARGEVTTYLDYWGQGTTLIVSS
VL: DILMTQSPSSLTVSAGEKVTMSCKSSQSLLASDNQNNFLAWHQQKPGQSPKMLIIWASTRVSGVPDRFIGSGSGTDFTLTINSVQAEDLAVYYCQQSYSAPLTFGAGTKLELQ
notes: also called chimeric JAR 1; chimeric human IgG1 JAR 1; source: transfected CHO cells, serum-free medium, purified from supernatant (HiTrap protein G)
As for B2, the binding result in experiment [5] and in experiment [6] was “binds” each time.
